Assay results reported in publication PMC11984392 (2025).
*1 amine or outer side, *2 acyl side, *3 side chain or, on linkers, in order; H or OH if unused. Bridges are numbered along the chain shown (N, C = ends). Primed or numbered codes have the meaning given here. [ ]: non-standard residue; d: D form. The star is where a group is joined. TATA = O=C(CC[*:1])N1CN(C(=O)CC[*:2])CN(C(=O)CC[*:3])C1; NOTA = O=C(O)CN1CCN(CC(=O)O)CCN(CC(=O)*)CC1; Hyp = O=C(O)[C@@H]1C[C@@H](O)CN1; hArg = N=C(N)NCCCC[C@H](N)C(=O)O; PEG2′ = not defined here; Sar = CNCC(=O)O

Legend:
His-tagged mouse EphA2 = target: T1, His-tagged mouse EphA2 (mouse, UniProt Q03145 26-538); test: SPR
T1 chain: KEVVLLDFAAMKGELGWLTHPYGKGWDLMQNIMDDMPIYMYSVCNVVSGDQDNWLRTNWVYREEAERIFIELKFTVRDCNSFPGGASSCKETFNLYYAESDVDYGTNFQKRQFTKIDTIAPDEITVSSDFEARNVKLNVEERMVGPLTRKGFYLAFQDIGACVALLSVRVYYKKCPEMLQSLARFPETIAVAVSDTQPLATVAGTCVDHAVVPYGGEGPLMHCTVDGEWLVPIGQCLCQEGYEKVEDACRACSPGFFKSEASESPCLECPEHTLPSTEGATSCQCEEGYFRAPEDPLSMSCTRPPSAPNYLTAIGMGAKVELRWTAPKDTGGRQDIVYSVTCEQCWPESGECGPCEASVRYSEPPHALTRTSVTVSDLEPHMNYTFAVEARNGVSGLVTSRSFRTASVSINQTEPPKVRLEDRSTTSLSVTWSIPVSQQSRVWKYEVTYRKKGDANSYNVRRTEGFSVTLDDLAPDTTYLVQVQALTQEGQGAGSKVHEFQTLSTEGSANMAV

His-tagged human EphA2 = His-tagged human EphA2 (human, UniProt P29317 24-537); test: SPR
His-tagged human EphA2, sequence (P29317 24-537): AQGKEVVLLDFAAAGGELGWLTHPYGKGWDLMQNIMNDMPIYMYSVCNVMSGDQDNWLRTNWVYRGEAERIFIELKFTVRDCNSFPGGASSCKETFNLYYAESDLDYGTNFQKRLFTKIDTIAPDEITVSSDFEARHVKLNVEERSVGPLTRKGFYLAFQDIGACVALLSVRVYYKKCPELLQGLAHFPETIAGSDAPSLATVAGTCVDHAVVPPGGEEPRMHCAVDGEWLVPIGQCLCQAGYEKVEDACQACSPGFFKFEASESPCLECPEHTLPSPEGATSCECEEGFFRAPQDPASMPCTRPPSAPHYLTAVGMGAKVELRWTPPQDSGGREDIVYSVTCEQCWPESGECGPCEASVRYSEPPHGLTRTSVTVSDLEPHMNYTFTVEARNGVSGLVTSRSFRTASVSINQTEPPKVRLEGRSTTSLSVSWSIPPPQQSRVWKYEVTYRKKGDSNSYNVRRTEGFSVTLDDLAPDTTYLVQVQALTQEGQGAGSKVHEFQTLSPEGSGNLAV

koff (His-tagged mouse EphA2): 0.00301 s⁻¹ | koff (His-tagged human EphA2): 0.00133 s⁻¹
B1: AJ201 (peptide)
peptide: {NOTA-PEG2′}-GR[Sar][Sar][Sar]GA[hArg]DC[Hyp]LVNPLCLHP[dD]W[hArg]C-NH2
modifications: linker 10-17-24 via TATA; not fully specified; also: hydroxyproline, place not given here
